According to publication PMC7104183 (Cell Reports, 2018):

Target: ectodomain of human DPP4 (residues 39-766) (human, UniProt P27487 39-766)
Assay: SPR

B1: MERS-CoV RBD (residues 367-588) (domain or fragment)
chain: EAKPSGSVVEQAEGVECDFSPLLSGTPPQVYNFKRLVFTNCNYNLTKLLSLFSVNDFTCSQISPAAIASNCYSSLILDYFSYPLSMKSDLSVSSAGPISQFNYKQSFSNPTCLILATVPHNLTTITKPLKYSYINKCSRFLSDDRTEVPQLVNANQYSPCVSIVPSTVWEDGDYYRKQLSPLEGGGWLVASGSTVAMTEQLQMGFGITVQYGTDTNSVCPKL
B1: binds.
